# In the RNAGym collection of RNA variant scans (doi:10.7554/elife.80360):
# B1: HDV Ribozyme (parent)
# chain: GGCCGGCAUGGUCCCAGCCUCCUCGCUGGCGCCGGCUGGGCAACAUUCCGAGGGGACCGUCCCCUCGGUAAUGGCGAAUGGGACCCA
# Variants of: B1
# Assay: self-cleavage, relative activity (ratio to wild type); higher = more cleavage; co-transcriptional
row,Variant,self-cleavage
1,GGCCGGCAUGGUCCCAGCCUCCUCGCUGGAGCCGGCUGGGCAACAUUCCCAGGGGACCGUCCCCUCGGUAAUGGCGAAUGGGACCCA [C30A G50C],0.577
2,GGCCGGCAUGGUCCCAGCCCCCUCGCUGGCGCCGGCUGGGCAACAUUCCGAGGGGACCGUCCCCUCGGUAAUGGCGAAUGGGACCCG [U20C A87G],0.282
3,GGCCGGCAUGGUCCCAGCCUCCUCGCUGGCGCUGGCUGGGCAACAUUCCGAGGGGACCGCCCCCUCGGUAAUGGCGAAUGGGACCCA [C33U U60C],0.773
4,GGCCGGCAUGGUCCCAUCCUCCUCGCUGGCGCCGGCUGGGCAACAUUCCGAGGGGACCGUCCCCUCGGUAAUGGAGAAUGGGACCCA [G17U C75A],0.198
5,GGCCGGCAUGGUCCCAGCCUCCUCGCUGGCGCCGGCUGGGCAACAUUCCGAGGGGACCGUCCCCUCGGUAAUGGCGUAGGGGACCCA [A77U U79G],0.161
6,GGCCGCCAUGGUCCCAGCCACCUCGCUGGCGCCGGCUGGGCAACAUUCCGAGGGGACCGUCCCCUCGGUAAUGGCGAAUGGGACCCA [G6C U20A],0
7,GGCCGGCAUGGUCCCAGCCUCCUCGCUGCCGCCGGCUGGGCAACAUUCCGAGGGGACCGUCCCCACGGUAAUGGCGAAUGGGACCCA [G29C U65A],0.095
8,GGCCGGCAUGGUCCCAGCCUCCUCGCUGGCGCAGGCUGGGCAACAUUCCGAGGGGACCGUCCCCUCGGUAAUGGUGAAUGGGACCCA [C33A C75U],0.0563
9,GGCCGGCAGGGUCCCAGCCUCCUCGCUGGCGCCGGCUGGGCAACAUUCCGAGGGGACCGUCCCCUCCGUAAUGGCGAAUGGGACCCA [U9G G67C],1.08
10,GGCCGGCAUGGUCCCAGCCUCCUCGCUGGCGCCGGCUGGGCAACAUUCCGUGGAGACCGUCCCCUCGGUAAUGGCGAAUGGGACCCA [A51U G54A],0.973
11,GGCCGGCAUGGUCCCAGCCUCCUCGCUGGCGCCGGCUGGGCAACAUUCCGAGGGGACCGUCCCCUCGGUAAUGACAAAUGGGACCCA [G74A G76A],0.443
12,GGCCGGCAUGGUCCCAGCCUCCUCGCUGGCGCGGGCUUGGCAACAUUCCGAGGGGACCGUCCCCUCGGUAAUGGCGAAUGGGACCCA [C33G G38U],0.246
13,GGCCGGCCUGGUCCCAGCCUCCUCGCUGGCGCCGGCUGGGCAACAUUCCGAGGGGACCGUCCCCUCGGUAAUGGCGAAUGGGACCGA [A8C C86G],1.02
14,GGCCGGCAUGGUCUCAGCCUCCUCGCUGGCGCCGGCCGGGCAACAUUCCGAGGGGACCGUCCCCUCGGUAAUGGCGAAUGGGACCCA [C14U U37C],1.32
15,GGCCGGCAUGGUCCCAGCCUCCUCGCUGGCGCCGGCUGGGCAACAUUCCGAGGGGACCGUCCUCUCGGUAAUGGCGAAUGGGCCCCA [C63U A83C],0.502
16,GGCCGGCAUGGUCCCAGCCUCCGCGCUGGCGCUGGCUGGGCAACAUUCCGAGGGGACCGUCCCCUCGGUAAUGGCGAAUGGGACCCA [U23G C33U],0.569

row,Variant,self-cleavage
1,GGCCGACAUGGUCCCAGCCUCCUCGCUGGCGCCGGCAGGGCAACAUUCCGAGGGGACCGUCCCCUCGGUAAUGGCGAAUGGGACCCA [G6A U37A],0.214
2,GGCCGACAUGGUCCCAGCCUCCUCGCUGGCGCCGGCUGGGCAACACUCCGAGGGGACCGUCCCCUCGGUAAUGGCGAAUGGGACCCA [G6A U46C],0.508
3,GGCCGGCAUGGUCCCAGCCUCCUCGCUGGCGCCGGCUGGGCAACAUUCCGAGGGGACCGUCCCCUCGGUAAUGGCGGAAGGGACCCA [A77G U79A],0.554
4,GACCGGCAUGGUCCCAGCCUCCUCGCUGGCGCCGGCUGGGCAACACUCCGAGGGGACCGUCCCCUCGGUAAUGGCGAAUGGGACCCA [G2A U46C],0.109
5,GGCCGGCAUAGUCCCAGCCUCCUCGCUGGCGCCGGCUGGGCAACAUUCCGAGGGGACCGUCCCCACGGUAAUGGCGAAUGGGACCCA [G10A U65A],0.831
6,GGCCGGCAUGGUCCCAGCCUCCUCACUGGCGCCGGCUGGGCAACAUUCCGAGGGGACCUUCCCCUCGGUAAUGGCGAAUGGGACCCA [G25A G59U],0.264
7,GGCCGGCAUGGUCCCAGCCUCCUCGCUGGCGCCGGCUGGGCAACAUUCCGAGGGGACCGACCCCUGGGUAAUGGCGAAUGGGACCCA [U60A C66G],0.878
8,GGCCGGCAUGGUCCCAGCCUCCUCGCUGGCGCUGGCUGGGCAACAUUCCGAGGGGACCGUCCCCUCGUUAAUGGCGAAUGGGACCCA [C33U G68U],0.678
9,GGCCGGCAUAGUCCCAGCCUCCUCGCUGGCGCCGGCUGGGCAACAUUCCGAGGGGACCGUCCCCUCGGUAAUGGCGAAUGGCACCCA [G10A G82C],0.231
10,GGCCGGCAUGGUCCCAGCCUCUUCGCUGGCGCCGGCUGGGCAACAUUCCGAGGGGACCGUCCCCUCGGUAAUGGCGAAUGAGACCCA [C22U G81A],0.0911
11,GGACGGCAUGGUCCCAGCCUCCUCUCUGGCGCCGGCUGGGCAACAUUCCGAGGGGACCGUCCCCUCGGUAAUGGCGAAUGGGACCCA [C3A G25U],0.0631
12,GGCCGGCAUGGUCACAGACUCCUCGCUGGCGCCGGCUGGGCAACAUUCCGAGGGGACCGUCCCCUCGGUAAUGGCGAAUGGGACCCA [C14A C18A],0
13,GGCCGGCAUGGUGCCAGCCUCCUCGCUGGCGCCGGCUGGGCAACAUUCCGAGGGGACCGUCCCCUCGGUAAUGGCGAAUGGGACUCA [C13G C85U],0
14,GGCUGGCAUGGUCCCAGCCUCCUCGCUGGCGCCGGCUGGGCAACAUUUCGAGGGGACCGUCCCCUCGGUAAUGGCGAAUGGGACCCA [C4U C48U],0.931
15,GGCCGGCAUGGCCCCAGCCUCCUCGCUGGCGCCGGCUGGGCAACAUUCCGAGGGGACCGUCCCCUGGGUAAUGGCGAAUGGGACCCA [U12C C66G],0.356
16,GGCCGGCAUGGUCCCAGCAUCCUCUCUGGCGCCGGCUGGGCAACAUUCCGAGGGGACCGUCCCCUCGGUAAUGGCGAAUGGGACCCA [C19A G25U],0.0791
